Measurements published in publication PMC3482342.

Columns and labels:
MukE (Escherichia coli) = MukE (Escherichia coli) (UniProt P22524); settings: cited from earlier work
[1] = target: MukE-LLFR (MukE-L38S/L41A/F185S/R186E) (E. coli) (UniProt P22524); assay: AUC

Sequence of MukE (P22524 whole entry): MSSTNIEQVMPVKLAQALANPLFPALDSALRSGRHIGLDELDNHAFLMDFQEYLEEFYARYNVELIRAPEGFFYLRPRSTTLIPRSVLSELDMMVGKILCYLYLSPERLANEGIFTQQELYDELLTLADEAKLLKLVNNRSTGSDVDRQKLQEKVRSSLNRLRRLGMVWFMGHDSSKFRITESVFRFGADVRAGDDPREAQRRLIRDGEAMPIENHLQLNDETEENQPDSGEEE

Kd [1] [µM] | Substance | Kd (MukE (Escherichia coli)) [µM]
 | MukE (from UniProt P22524) | 18
450 | MukE-LLFR (MukE-L38S/L41A/F185S/R186E) (from UniProt P22524 10-234) (natural protein) | 
